Source: paper PMC8277577 (Nature, 2021)
Residue numbers refer to the chain shown, from its start.

B1: C1015 (antibody, V domains shown)
VH: QVQLQESGPRLVKPSGSLSLTCAVSGGSLSSSNWWNWVRQSPEKGLEWIGEIFHSGSTYYNPSLKSRVTISVDKSKNHFSLNLRSVTAADTAVYYCAGSYSNYIGGVWFDPWGQGTLVTVSS
VL: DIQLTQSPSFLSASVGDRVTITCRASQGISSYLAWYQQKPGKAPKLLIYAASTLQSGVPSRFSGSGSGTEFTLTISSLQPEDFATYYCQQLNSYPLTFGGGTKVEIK
notes: source: recombinant, purified
B2: C581 (antibody, V domains shown)
VH: EVQLVQSGAEVKKPGESLKISCKGSGYRFTSYWIAWVRQMPGKGLEWMGIIYPGDSDTRYSPSFQGQVTISADQSISTAYLQWSSLKASDTAMYYCARGGPPGGVKLELTDYWGQGALVTVSS
VL: not shown
notes: source: recombinant, purified
B3: C908 (antibody, V domains shown)
VH: B2 VH with G24A, R28S, S31I, A35G, D55E, D57E, Q74K, S84R, A117T
VL: not shown
notes: source: recombinant, purified
B4: C951 (antibody, V domains shown)
VH: QVQLQESGPRLVKPSGTLSLTCAVSGGSISTTNWWSWVRQPPGKGLEWIGEIHHSGNTNYNPSLKSRVTISVDRSKNQFSLKLSSVTAADTAVYFCARDGGRPGDPFDIWGQGTMVTVSS
VL: QSALTQPASVSGSPGQSITISCTGTSSDVGGYNYVSWYQQHPGKAPNLMIYDVSDRPSGVSNRFSGSKSGNTASLTISGLQAEDEADYYCNSFTSNSTRVFGTGTKVTV
notes: source: recombinant, purified
B5: C841 (antibody, V domains shown)
VH: EVQLVESGGGLVQPGGSLRLSCAASGFTFSIFSMNWVRQAPGKGLEWISYISSSSGSRHYADSVKGRFTISRDNAKNSLYLQMNNLRDEDTAMYYCAREAHDGALTGYGDYLNWFDPWGQGVLVTVSS
VL: SYELTQPPSVSVAPGKTARIPCGGDSVGSKSVHWYQQKSGQAPVLVIHSDSDRPSGIPERFSGSNSGNTATLTITGVAAGDEADYYCHVWDTIGDRFYWVFGGGTKLTVL
notes: source: recombinant, purified
B6: C1010 (antibody, V domains shown)
VH: QVQLVESGGGVVQPGRSLRLSCAASGFTFSSYAMHWVRQAPGKGLEWVAVISYDGSNKYYADSVKGRFTISRDNSKNTLYLQMNSLRAEDTAVYYCAKKGQPYCGGDCYFYYFDYWGQGTLVTVSS
VL: DIQMTQSPSSLSASLGDRVTITCQASQDISNYLNWYQQKPGKAPKLLIYDASNLETGVPSRFSGSGSGTDFTFTISSLQPEDIATYYCQQYDNLPPITFGQGTRLEIK
notes: source: recombinant, purified
B7: C1011 (antibody, V domains shown)
VH: QVQLVESGGGVVQPGRSLRLSCAVSGFTFSHYAMHWVRQAPGKGLEWVAVISYDGADKYYADSVRGRFTIARDNSKNTLFLQMSSLRPEDTAVYYCAKKGQPYCGGDCHFYYLDYWGQGTLVTVSS
VL: B6 VL with L15V, Y32H, P80A
notes: source: recombinant, purified
B8: C916 (antibody, V domains shown)
VH: EVQLVESGGGLVQPGGSLRLSCAASGFTFSNYDMHWVRQATGRGLEWVSTIGTAGDTYYPGSVKGRFTISRENAKNSLYLQMNSLRAGDTALYYCARVRYDSSGYFWSLDYWGQGTLVTVSS
VL: not shown
notes: source: recombinant, purified
B9: C917 (antibody, V domains shown)
VH: B8 VH with R43K, E46D, L92V, Y100F, S102T
VL: not shown
notes: source: recombinant, purified
B10: C1008 (antibody, V domains shown)
VH: EVQLVESGGGLIQPGGSLRLSCAASGFTVSSNYMSWVRQAPGKGLEWVSVIYSGGSTYYADSVKGRFTISRDNSKNTLYLQMNSLRAEDTAVYYCARVVGYDFWSGYDGGYFDYWGQGTLVTVSS
VL: QSALTQPASVSGSPGQSITISCTGTSSDVGSYNLVSWYQQHPGKAPKLMIYEVSKRPSGVSNRFSGSKSGNTASLTISGLQAEDEADYYCCSYAGSSTWVFGGGTKLTVL
notes: source: recombinant, purified
B11: C1009 (antibody, V domains shown)
VH: EVQLVESGGGLLQPGGSLRLSCAASGFSVSSNYMTWVRQAPGKGLEWVAAIYSGDSTYYVDSVKGRFIISRDNSKNTVYLHLSSLRAEDTAVYYCARLVGYDFRSGSDGGYFDYWGHGTLVTVSS
VL: B10 VL with V29I, S31N, E52D, A86T
notes: source: recombinant, purified
B12: C108 (antibody, V domains shown)
VH: B4 VH with R10G, T31S, H53Y, S55T, N57S, R74K, F95Y, A97V, P106A
VL: B10 VL with S31G, L34Y, E52D, K55N, C91N, A94T, G95S, W99R, G103T, L107V
notes: source: recombinant, purified
B13: C960 (antibody, V domains shown)
VH: QVQLVESGGGVVQPGRSLTLSCTASGFTFNRFAMFWVRQAPGKGLEWVAVISFDGSYEHYAESVKGRFAIFRDNPKNTLYLQMNSLRAEDTAVYYCAKSPINYCANGVCYPDSWGQGTLVTVSS
VL: NFMLTQPHSVSESPGKTVTISCTGSSGSIANNYVQWYQQRPGSAPTTVIFEDTQRPSGVPDRFSGSIDSSSNSASLNISGLKPEDEADYYCQSFDVNSRWVFGGGTKLTVL
notes: source: recombinant, purified
B14: C936 (antibody, V domains shown)
VH: EVQLVESGGGLIQPGGSLRLSCAASGFTVSSNYMSWVRQAPGKGLEWVSVIYSGGSTFYADSVKGRFTISRDNSKNTLYLQMNSLRAEDTAVYYCARDLGTGLFDYWGQGTLVTVSS
VL: DIQLTQSPSFLSASVGDRVTITCRASQGISSYLAWYQQKPGKAPKLLIYAASTLQSGVPSRFSGSGSGTEFTLTISSLQPEDFATYYCQQLDSYPPGTFGPGTKVDIK
notes: source: recombinant, purified
B15: C953 (antibody, V domains shown)
VH: QVQLVQSGAEVKKPGSSVKVSCKASGGTFSSYAISWVRQAPGQGLEWMGRIIPILGIANYAQKFQGRVTITADKSTSTAYMELSSLRSEDTAVYYCARDSEYSSSWYSRGYYGMDVWGQGTTVTVSS
VL: not shown
notes: source: recombinant, purified
B16: C954 (antibody, V domains shown)
VH: QVQLVQSGAEVKKPGSSVKVSCKASGDTFTNYAFSWMRQAPGQGLEWMGRIIPILGIVKYSQKFQDRVRISADKSTSTAYMDLSSLRSEDTAMYYCARDSEFSTSWFSRGYHGMDVWGQGTTVTVSS
VL: DIVMTQSPLSLPVTPGEPASISCRSSQSLLHGDGYNYLDWYLQKPGQSPHLLIYLGSNRTSGVSDRFSGSGSGTDFTLKISRVEAEDVGVYYCMQALQTPPTFGGGTKVEIK
notes: source: recombinant, purified

Molecular target: T1, SARS-CoV-2 receptor binding domain (RBD) (SARS-CoV-2, GenBank MN985325.1 …, UniProt P0DTC2)
Experiment: ELISA
Settings: both partners purified

B1: no binding (tested: >1000 ng/ml).

Molecular target: T1, SARS-CoV-2 receptor binding domain (RBD)
Experiment: BLI
Settings: both partners purified

Going from B2 to B3, the Kd falls from 0.0725 nM to 0.00384 nM (19-fold).

Compared with B4, B5 is 1.8-fold higher in Kd: 3.34 nM for the first, 6.08 nM for the second.

First: B6
Second: B7
The Kd of the first is 1300-fold higher: 16.3 nM for the first, 0.0121 nM for the second. The second binds more tightly here.

Compared with B8, B9 is 2.9-fold lower in Kd: 2.92 nM for the first, 0.999 nM for the second. The second binds more tightly here.

Going from B10 to B11, the Kd falls from 208 nM to 4.79 nM (43-fold). The second binds more tightly here.

Going from B12 to B13, the Kd falls from 21.5 nM to 1.5 nM (14-fold).

First: B14
Second: B15
The Kd of the first is 3.9-fold lower: 157 nM for the first, 620 nM for the second.

Work on B16 yielded a Kd of 1.47 nM.
